Experimental data published in patent US20240207421A1, “NERVE TARGETING PEPTIDES AND METHODS OF USE” (ALUME BIOSCIENCES, INC., priority 2020, published 2024).

target: Laminin 421/521; assay: phage display, NGS count

Binder	Count
EYVKFSHSPRTY	31
DVIHSSRGAYFE	36
SVESNSKLTMPR	29
WPMMQTR	29
CQGWPRPMC	30
CTWKHRDNC	30
CIGGPHRNC	29
LGPSTQGAGQTR	38
DWTQVRVTNWFL	35
VVPSWPSVHRPP	31
SHDVANGTSVRT	29
FNSDSRSTHQED	29
KASIAYD	30
GSPEKRT	30
GGWQSLWDKPEH	31
SYDGTMLKQVRL	36
WAYTDYM	35
CTAWTRQEC	31
CLKDTHLNC	40

Binder	Count
CKWTQLWGC	40
TLKAGTRANDGV	32
CGETTAGKC	33
ANRYLAS	40
RNLHYPLNHPFM	30
WSPANGWRHQTI	36
WGWNGANMSPRG	31
NDTGRHASGISK	32
QINWKQADKNAD	33
DSLYRGMHQPRI	29
QTFHEYLNPARG	37
NGHEVQSRAANR	29
MTNSGAK	35
IDLSLRS	29
TFAAAQAELIMV	38
SLLSVVNTSSKS	31
GPLLFRG	30
LGYGQGTPHRSN	30
ALKIGPETTIYM	35

Continued, values first:

Count	Binder
31	GPMLKNLSDAVT
30	WRSPLTT
31	NHDQGSLTRWRS
29	QGWKDRLPIWRY
29	CKSPAIKGC
38	GDAQILM
32	LPMLRHS
31	CQTSGHHQC
30	QGWEFQVPARHS
31	CSSQAKRSC
29	LGSSRSPSSFLG
38	GHRTLVTSERYL
29	HPAWADFFTMSS
29	SPDRTNWGWQTN
34	TFGSGRSMPIQY
30	CKSERGPEC
36	AHAAGRDMRQGT
30	GLLDWGSLQGGN
36	WQWRSTELGYRY
29	IDQSGLQKSGMK
38	AQRMNQA

Count	Binder
29	CNSWKAAKC
32	QALRTNYSPLNS
35	LGHQNGGRADMW
30	QTFGYSMFNVRT
29	EVERILTPHVNN
34	ALPWQSGVHGTK
34	VYRNGGGLPLTA
37	CLHNGQRSC
37	DIMKSPRSNLRS
32	CHNADNNGC
38	WEEHRVEILPDV
33	HSTYAPG
29	EDRMMTYRYTST
40	GQPRNIHLPGTH
37	SLNTTWVSPMMK
30	CSRAGLSAC
30	VPSYILR
36	NWTHLGVARLQP
30	TAPRWTQ
37	CTPRSATLC
